Laboratory results reported in PMC10711656, “RZZ‐Spindly and CENP‐E form an integrated platform to recruit dynein to the kinetochore corona” (The EMBO Journal, 2023).

B1: EGFP‐CENP‐E^2366C (domain or fragment, human, UniProt Q02224 2366-2701, looked up)
chain: NKNPHVTSRATQLTTEKIRELENSLHEAKESAMHKESKIIKMQKELEVTNDIIAKLQAKVHESNKCLEKTKETIQVLQDKVALGAKPYKEEIEDLKMKLVKIDLEKMKNAKEFEKEISATKATVEYQKEVIRLLRENLRRSQQAQDTSVISEHTDPQPSNKPLTCGGGSGIVQNTKALILKSEHIRLEKEISKLKQQNEQLIKQKNELLSNNQHLSNEVKTWKERTLKREAHKQVTCENSPKSPKVTGTASKKKQITPSQCKERNLQDPVPKESPKSCFFDSRSKSLPSPHPVRYFDNSSLGLCPEVQNAGAESVDSQPGPWHASSGKDVPECKTQ
notes: source: E. coli BL21 (DE3) RP plus, purified (HisTrap FF, Superose 6); not shown: EGFP, N-terminal, kept
B2: EGFP‐CENP‐E^2070C (domain or fragment, human, UniProt Q02224 2070-2701, looked up)
chain: RQNHQVKPEKRLLSDGQQHLTESLREKCSRIKELLKRYSEMDDHYECLNRLSLDLEKEIEFQKELSMRVKANLSLPYLQTKHIEKLFTANQRCSMEFHRIMKKLKYVLSYVTKIKEEQHESINKFEMDFIDEVEKQKELLIKIQHLQQDCDVPSRELRDLKLNQNMDLHIEEILKDFSESEFPSIKTEFQQVLSNRKEMTQFLEEWLNTRFDIEKLKNGIQKENDRICQVNNFFNNRIIAIMNESTEFEERSATISKEWEQDLKSLKEKNEKLFKNYQTLKTSLASGAQVNPTTQDNKNPHVTSRATQLTTEKIRELENSLHEAKESAMHKESKIIKMQKELEVTNDIIAKLQAKVHESNKCLEKTKETIQVLQDKVALGAKPYKEEIEDLKMKLVKIDLEKMKNAKEFEKEISATKATVEYQKEVIRLLRENLRRSQQAQDTSVISEHTDPQPSNKPLTCGGGSGIVQNTKALILKSEHIRLEKEISKLKQQNEQLIKQKNELLSNNQHLSNEVKTWKERTLKREAHKQVTCENSPKSPKVTGTASKKKQITPSQCKERNLQDPVPKESPKSCFFDSRSKSLPSPHPVRYFDNSSLGLCPEVQNAGAESVDSQPGPWHASSGKDVPECKTQ
notes: codon-optimised cDNA; The His6-EGFP tag is PreScission-cleavable, but no cleavage step is described; source: insect cells (biGBac; baculovirus from Sf9, expression in Tnao38), purified (HisTrap, Superdex 200); not shown: EGFP, N-terminal, kept

Key:
[1] = target: T1, ^mCHRZZ^mChS rings (mCherry-RZZ with prefarnesylated mCherry-Spindly, polymerised with GST-MPS1) (UniProt P50748 1-2209; Q9H900 1-591; O43264 1-779; Q96EA4 1-605, incubated with GST-MPS1 (the paper says that MPS1 phosphorylates ROD on Thr13 and Ser15) | farnesylated (prefarnesylated)); experiment: TIRF microscopy ring-binding assay; mCherry-RZZ/mCherry-Spindly rings (approximately 40 nM) held on the coverslip by anti-mCherry GST-tagged nanobody; EGFP-CENP-E constructs (10 nM) flowed in; A-buffer (50 mM HEPES pH 8, 200 mM NaCl, 2 mM TCEP, 0.1 mg/ml BSA); room temperature; details: both partners purified
T1 construct: ROD subunit of the ROD-Zwilch-ZW10 (RZZ) complex; Zwilch subunit of the RZZ complex; ZW10 subunit of the RZZ complex; Spindly, dynein-dynactin adaptor; Constructs as in Sacristan et al, 2018, Raisch et al, 2022 and d'Amico et al, 2022; also called RZZS minicircles; RZZS rings; source: mCherry-RZZ: biGBac system, purified as previously described; mCherry-Spindly: Tnao38 insect cells, purified; 4 …

[2] = target: T2, ^mChRZZS filaments (mCherry-RZZ with prefarnesylated Spindly, polymerised with GST-MPS1) (UniProt P50748 1-2209; Q9H900 1-591; O43264 1-779; Q96EA4 1-605, incubated with GST-MPS1 (the paper says that MPS1 phosphorylates ROD on Thr13 and Ser15) | farnesylated (prefarnesylated)); experiment: filament-binding assay (fluorescence microscopy); mCherry-RZZS filaments diluted 1:8, EGFP-CENP-E constructs added to 1 μM, flowed into a flow chamber and imaged; M-buffer (50 mM HEPES pH 7.5, 100 mM NaCl, 1 mM MgCl2, 1 mM TCEP); details: both partners purified
T2 construct: ROD subunit of the ROD-Zwilch-ZW10 (RZZ) complex; Zwilch subunit of the RZZ complex; ZW10 subunit of the RZZ complex; Spindly, dynein-dynactin adaptor; no mCherry is named on the Spindly of the filaments; Filaments formed essentially as described by d'Amico et al (2022); source: mCherry-RZZ: biGBac system, purified as previously described; 4 μM mCherry-RZZ and 8 μM prefarnesylated Spindly …
T2 sequence (P50748 whole entry, chain 1 of 4): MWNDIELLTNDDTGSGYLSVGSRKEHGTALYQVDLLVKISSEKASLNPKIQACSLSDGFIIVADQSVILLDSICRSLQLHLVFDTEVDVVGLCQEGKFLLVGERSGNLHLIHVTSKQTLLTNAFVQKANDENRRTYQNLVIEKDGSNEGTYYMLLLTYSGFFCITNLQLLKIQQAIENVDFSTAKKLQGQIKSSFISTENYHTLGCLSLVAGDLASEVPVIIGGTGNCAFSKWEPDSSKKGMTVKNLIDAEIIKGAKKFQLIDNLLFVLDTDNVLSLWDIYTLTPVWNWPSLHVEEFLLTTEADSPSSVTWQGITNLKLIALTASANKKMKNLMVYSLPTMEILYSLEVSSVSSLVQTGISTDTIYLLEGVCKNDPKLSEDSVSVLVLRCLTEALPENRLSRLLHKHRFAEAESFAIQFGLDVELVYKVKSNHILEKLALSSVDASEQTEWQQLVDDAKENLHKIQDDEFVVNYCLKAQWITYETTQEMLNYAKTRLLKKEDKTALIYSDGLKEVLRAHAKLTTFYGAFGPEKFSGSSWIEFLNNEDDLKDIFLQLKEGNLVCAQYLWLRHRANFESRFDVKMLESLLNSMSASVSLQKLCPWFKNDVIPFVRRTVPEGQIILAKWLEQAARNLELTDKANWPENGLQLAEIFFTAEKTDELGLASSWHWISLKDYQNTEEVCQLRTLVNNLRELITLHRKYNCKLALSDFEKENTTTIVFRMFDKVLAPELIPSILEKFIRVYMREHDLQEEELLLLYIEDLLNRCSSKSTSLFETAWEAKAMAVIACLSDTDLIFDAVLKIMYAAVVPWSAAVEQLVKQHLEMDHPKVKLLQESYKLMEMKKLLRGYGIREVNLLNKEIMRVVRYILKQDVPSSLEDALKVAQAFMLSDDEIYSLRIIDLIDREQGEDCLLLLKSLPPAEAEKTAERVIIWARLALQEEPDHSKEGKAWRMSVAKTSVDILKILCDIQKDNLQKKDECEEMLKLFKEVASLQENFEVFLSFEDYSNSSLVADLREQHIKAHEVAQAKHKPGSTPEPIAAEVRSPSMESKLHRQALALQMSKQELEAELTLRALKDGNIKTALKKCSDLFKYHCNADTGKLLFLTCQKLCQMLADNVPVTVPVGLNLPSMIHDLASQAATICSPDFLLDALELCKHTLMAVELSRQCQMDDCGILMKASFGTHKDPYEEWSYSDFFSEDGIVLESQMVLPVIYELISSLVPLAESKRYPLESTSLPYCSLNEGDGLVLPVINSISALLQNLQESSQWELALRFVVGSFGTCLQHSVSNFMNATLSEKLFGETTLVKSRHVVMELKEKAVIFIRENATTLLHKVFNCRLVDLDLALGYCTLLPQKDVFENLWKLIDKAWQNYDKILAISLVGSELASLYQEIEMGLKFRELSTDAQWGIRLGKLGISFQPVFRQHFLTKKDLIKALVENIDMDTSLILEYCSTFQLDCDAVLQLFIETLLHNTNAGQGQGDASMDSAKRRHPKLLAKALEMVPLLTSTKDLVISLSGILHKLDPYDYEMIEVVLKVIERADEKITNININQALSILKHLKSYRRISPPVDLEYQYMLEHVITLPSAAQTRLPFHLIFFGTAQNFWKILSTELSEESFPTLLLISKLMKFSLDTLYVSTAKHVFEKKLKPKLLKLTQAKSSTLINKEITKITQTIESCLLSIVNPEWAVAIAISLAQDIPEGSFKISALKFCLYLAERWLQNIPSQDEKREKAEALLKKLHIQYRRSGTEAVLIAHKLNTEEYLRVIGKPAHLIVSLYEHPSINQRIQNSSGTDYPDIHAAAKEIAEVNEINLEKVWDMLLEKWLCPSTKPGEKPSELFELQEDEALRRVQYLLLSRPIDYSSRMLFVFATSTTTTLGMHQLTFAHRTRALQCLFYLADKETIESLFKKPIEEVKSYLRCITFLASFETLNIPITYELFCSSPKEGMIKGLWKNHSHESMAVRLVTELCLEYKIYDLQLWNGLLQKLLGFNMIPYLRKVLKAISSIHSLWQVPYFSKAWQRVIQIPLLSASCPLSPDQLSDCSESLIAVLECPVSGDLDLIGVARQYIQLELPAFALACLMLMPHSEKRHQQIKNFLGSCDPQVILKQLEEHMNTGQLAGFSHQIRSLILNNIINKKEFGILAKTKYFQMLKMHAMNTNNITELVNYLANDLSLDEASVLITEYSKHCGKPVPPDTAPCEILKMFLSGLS
T2 sequence (Q9H900 whole entry, chain 2 of 4): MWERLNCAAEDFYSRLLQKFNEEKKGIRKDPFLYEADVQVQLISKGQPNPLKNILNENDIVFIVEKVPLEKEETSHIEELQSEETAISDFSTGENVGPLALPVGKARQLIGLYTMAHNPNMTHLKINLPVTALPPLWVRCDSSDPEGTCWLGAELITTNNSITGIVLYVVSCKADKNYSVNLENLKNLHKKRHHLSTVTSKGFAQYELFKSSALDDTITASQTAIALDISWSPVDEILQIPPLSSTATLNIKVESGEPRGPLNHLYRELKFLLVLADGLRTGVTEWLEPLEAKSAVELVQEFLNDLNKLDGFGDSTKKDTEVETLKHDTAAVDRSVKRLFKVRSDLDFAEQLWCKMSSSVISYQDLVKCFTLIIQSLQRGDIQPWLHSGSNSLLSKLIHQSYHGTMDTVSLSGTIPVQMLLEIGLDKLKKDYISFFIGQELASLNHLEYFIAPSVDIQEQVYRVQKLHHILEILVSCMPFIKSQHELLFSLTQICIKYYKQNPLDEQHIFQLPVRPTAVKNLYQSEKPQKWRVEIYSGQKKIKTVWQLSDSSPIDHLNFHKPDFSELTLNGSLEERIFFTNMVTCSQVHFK
T2 sequence (O43264 whole entry, chain 3 of 4): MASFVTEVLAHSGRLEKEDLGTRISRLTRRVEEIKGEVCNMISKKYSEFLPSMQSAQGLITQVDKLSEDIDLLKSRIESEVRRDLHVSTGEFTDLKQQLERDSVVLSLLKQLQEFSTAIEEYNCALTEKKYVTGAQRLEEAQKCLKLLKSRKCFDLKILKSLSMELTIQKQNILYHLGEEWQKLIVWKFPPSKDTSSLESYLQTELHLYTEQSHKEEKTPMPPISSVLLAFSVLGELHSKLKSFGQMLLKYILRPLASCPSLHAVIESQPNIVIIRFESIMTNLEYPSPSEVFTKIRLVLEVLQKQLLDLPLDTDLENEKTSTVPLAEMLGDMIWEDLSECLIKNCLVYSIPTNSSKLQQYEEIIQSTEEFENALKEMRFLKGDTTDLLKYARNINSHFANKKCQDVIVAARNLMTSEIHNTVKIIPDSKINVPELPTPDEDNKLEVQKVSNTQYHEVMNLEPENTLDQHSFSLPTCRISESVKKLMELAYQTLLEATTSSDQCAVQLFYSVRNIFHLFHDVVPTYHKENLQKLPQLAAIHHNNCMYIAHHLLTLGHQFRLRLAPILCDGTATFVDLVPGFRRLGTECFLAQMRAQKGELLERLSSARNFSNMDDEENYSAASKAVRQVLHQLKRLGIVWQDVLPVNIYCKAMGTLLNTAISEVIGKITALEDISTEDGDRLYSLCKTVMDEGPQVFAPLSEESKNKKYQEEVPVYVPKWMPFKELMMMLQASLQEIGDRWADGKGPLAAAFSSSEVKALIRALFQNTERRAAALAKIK
T2 sequence (Q96EA4 whole entry, chain 4 of 4): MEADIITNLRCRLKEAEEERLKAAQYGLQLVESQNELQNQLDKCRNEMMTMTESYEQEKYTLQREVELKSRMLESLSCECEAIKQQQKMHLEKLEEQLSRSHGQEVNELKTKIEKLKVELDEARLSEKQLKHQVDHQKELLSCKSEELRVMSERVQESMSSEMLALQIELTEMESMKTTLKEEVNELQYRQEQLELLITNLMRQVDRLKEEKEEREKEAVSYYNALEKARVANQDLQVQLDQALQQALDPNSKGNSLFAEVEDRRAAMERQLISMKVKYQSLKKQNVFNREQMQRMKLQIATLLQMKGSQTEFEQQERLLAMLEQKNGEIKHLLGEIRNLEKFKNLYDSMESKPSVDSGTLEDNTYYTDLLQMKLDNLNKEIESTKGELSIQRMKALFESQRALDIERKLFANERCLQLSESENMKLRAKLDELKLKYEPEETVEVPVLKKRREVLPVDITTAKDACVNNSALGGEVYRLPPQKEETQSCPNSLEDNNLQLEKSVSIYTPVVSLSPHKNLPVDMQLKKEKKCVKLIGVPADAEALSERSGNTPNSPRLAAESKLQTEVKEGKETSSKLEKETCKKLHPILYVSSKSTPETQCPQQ

T1 sequence (P50748 whole entry, chain 1 of 4): as the sequence (P50748 whole entry, chain 1 of 4) above
T1 sequence (Q9H900 whole entry, chain 2 of 4): as the sequence (Q9H900 whole entry, chain 2 of 4) above
T1 sequence (O43264 whole entry, chain 3 of 4): as the sequence (O43264 whole entry, chain 3 of 4) above
T1 sequence (Q96EA4 whole entry, chain 4 of 4): as the sequence (Q96EA4 whole entry, chain 4 of 4) above

Binder | binding result [1] | binding result [2]
B1 | binds | 
B2 | binds | binds
